Laboratory results published in patent US20240123070A1 (SHANGHAI GENBASE BIOTECHNOLOGY, published 2024).

B1: B8.2.4 TCR mutant β98P-T (TCR, V domains shown)
V domain 1: AQKITQTQPGMFVQEKEAVTLDCTYDTSDPSYGLFWYKQPSSGEMIFLIYQGSYDQQNATEGRYSLNFQKARKSANLVISASQLGDSAMYFCAMRERTGTASKLTFGTGTRLQVTL
V domain 2: DVKVTQSSRYLVKRTGEKVFLECVQDMDHENMFWYRQDPGLGLRLIYFSYDVKMKEKGDIPEGYSVSREKKERFSLILESASTNQTSMYLCASSQTVTPQHFGDGTRLSILE
B2: B8.2.4 TCR mutant β95Q-D (TCR, V domains shown)
V domain 1: AQKITQTQPGMFVQEKEAVTLDCTYDTSDPSYGLFWYKQPSSGEMIFLIYQGSYDQQNATEGRYSLNFQKARKSANLVISASQLGDSAMYFCAMRERTGTASKLTFGTGTRLQVTL
V domain 2: DVKVTQSSRYLVKRTGEKVFLECVQDMDHENMFWYRQDPGLGLRLIYFSYDVKMKEKGDIPEGYSVSREKKERFSLILESASTNQTSMYLCASSDTVPPQHFGDGTRLSILE
B3: B8.2.4 TCR mutant β98P-Y (TCR, V domains shown)
V domain 1: AQKITQTQPGMFVQEKEAVTLDCTYDTSDPSYGLFWYKQPSSGEMIFLIYQGSYDQQNATEGRYSLNFQKARKSANLVISASQLGDSAMYFCAMRERTGTASKLTFGTGTRLQVTL
V domain 2: DVKVTQSSRYLVKRTGEKVFLECVQDMDHENMFWYRQDPGLGLRLIYFSYDVKMKEKGDIPEGYSVSREKKERFSLILESASTNQTSMYLCASSQTVYPQHFGDGTRLSILE
B4: B8.2.4 TCR mutant β95Q-R (TCR, V domains shown)
V domain 1: AQKITQTQPGMFVQEKEAVTLDCTYDTSDPSYGLFWYKQPSSGEMIFLIYQGSYDQQNATEGRYSLNFQKARKSANLVISASQLGDSAMYFCAMRERTGTASKLTFGTGTRLQVTL
V domain 2: DVKVTQSSRYLVKRTGEKVFLECVQDMDHENMFWYRQDPGLGLRLIYFSYDVKMKEKGDIPEGYSVSREKKERFSLILESASTNQTSMYLCASSRTVPPQHFGDGTRLSILE
B5: B8.2.4 TCR mutant β95Q-C (TCR, V domains shown)
V domain 1: AQKITQTQPGMFVQEKEAVTLDCTYDTSDPSYGLFWYKQPSSGEMIFLIYQGSYDQQNATEGRYSLNFQKARKSANLVISASQLGDSAMYFCAMRERTGTASKLTFGTGTRLQVTL
V domain 2: DVKVTQSSRYLVKRTGEKVFLECVQDMDHENMFWYRQDPGLGLRLIYFSYDVKMKEKGDIPEGYSVSREKKERFSLILESASTNQTSMYLCASSCTVPPQHFGDGTRLSILE
B6: B8.2.4 TCR mutant β95Q-T (TCR, V domains shown)
V domain 1: AQKITQTQPGMFVQEKEAVTLDCTYDTSDPSYGLFWYKQPSSGEMIFLIYQGSYDQQNATEGRYSLNFQKARKSANLVISASQLGDSAMYFCAMRERTGTASKLTFGTGTRLQVTL
V domain 2: DVKVTQSSRYLVKRTGEKVFLECVQDMDHENMFWYRQDPGLGLRLIYFSYDVKMKEKGDIPEGYSVSREKKERFSLILESASTNQTSMYLCASSTTVPPQHFGDGTRLSILE
B7: B8.2.4 TCR mutant β95Q-W (TCR, V domains shown)
V domain 1: AQKITQTQPGMFVQEKEAVTLDCTYDTSDPSYGLFWYKQPSSGEMIFLIYQGSYDQQNATEGRYSLNFQKARKSANLVISASQLGDSAMYFCAMRERTGTASKLTFGTGTRLQVTL
V domain 2: DVKVTQSSRYLVKRTGEKVFLECVQDMDHENMFWYRQDPGLGLRLIYFSYDVKMKEKGDIPEGYSVSREKKERFSLILESASTNQTSMYLCASSWTVPPQHFGDGTRLSILE
B8: B8.2.4 TCR mutant β95Q-K (TCR, V domains shown)
V domain 1: AQKITQTQPGMFVQEKEAVTLDCTYDTSDPSYGLFWYKQPSSGEMIFLIYQGSYDQQNATEGRYSLNFQKARKSANLVISASQLGDSAMYFCAMRERTGTASKLTFGTGTRLQVTL
V domain 2: DVKVTQSSRYLVKRTGEKVFLECVQDMDHENMFWYRQDPGLGLRLIYFSYDVKMKEKGDIPEGYSVSREKKERFSLILESASTNQTSMYLCASSKTVPPQHFGDGTRLSILE
B9: B8.2.4 TCR mutant β95Q-I (TCR, V domains shown)
V domain 1: AQKITQTQPGMFVQEKEAVTLDCTYDTSDPSYGLFWYKQPSSGEMIFLIYQGSYDQQNATEGRYSLNFQKARKSANLVISASQLGDSAMYFCAMRERTGTASKLTFGTGTRLQVTL
V domain 2: DVKVTQSSRYLVKRTGEKVFLECVQDMDHENMFWYRQDPGLGLRLIYFSYDVKMKEKGDIPEGYSVSREKKERFSLILESASTNQTSMYLCASSITVPPQHFGDGTRLSILE
B10: B8.2.4 TCR mutant β95Q-G (TCR, V domains shown)
V domain 1: AQKITQTQPGMFVQEKEAVTLDCTYDTSDPSYGLFWYKQPSSGEMIFLIYQGSYDQQNATEGRYSLNFQKARKSANLVISASQLGDSAMYFCAMRERTGTASKLTFGTGTRLQVTL
V domain 2: DVKVTQSSRYLVKRTGEKVFLECVQDMDHENMFWYRQDPGLGLRLIYFSYDVKMKEKGDIPEGYSVSREKKERFSLILESASTNQTSMYLCASSGTVPPQHFGDGTRLSILE
B11: B8.2.4 TCR mutant β95Q-H (TCR, V domains shown)
V domain 1: AQKITQTQPGMFVQEKEAVTLDCTYDTSDPSYGLFWYKQPSSGEMIFLIYQGSYDQQNATEGRYSLNFQKARKSANLVISASQLGDSAMYFCAMRERTGTASKLTFGTGTRLQVTL
V domain 2: DVKVTQSSRYLVKRTGEKVFLECVQDMDHENMFWYRQDPGLGLRLIYFSYDVKMKEKGDIPEGYSVSREKKERFSLILESASTNQTSMYLCASSHTVPPQHFGDGTRLSILE
B12: B8.2.4 TCR mutant β95Q-E (TCR, V domains shown)
V domain 1: AQKITQTQPGMFVQEKEAVTLDCTYDTSDPSYGLFWYKQPSSGEMIFLIYQGSYDQQNATEGRYSLNFQKARKSANLVISASQLGDSAMYFCAMRERTGTASKLTFGTGTRLQVTL
V domain 2: DVKVTQSSRYLVKRTGEKVFLECVQDMDHENMFWYRQDPGLGLRLIYFSYDVKMKEKGDIPEGYSVSREKKERFSLILESASTNQTSMYLCASSETVPPQHFGDGTRLSILE
B13: B8.2.4 TCR mutant β95Q-A (TCR, V domains shown)
V domain 1: AQKITQTQPGMFVQEKEAVTLDCTYDTSDPSYGLFWYKQPSSGEMIFLIYQGSYDQQNATEGRYSLNFQKARKSANLVISASQLGDSAMYFCAMRERTGTASKLTFGTGTRLQVTL
V domain 2: DVKVTQSSRYLVKRTGEKVFLECVQDMDHENMFWYRQDPGLGLRLIYFSYDVKMKEKGDIPEGYSVSREKKERFSLILESASTNQTSMYLCASSATVPPQHFGDGTRLSILE
B14: B8.2.4 TCR mutant β95Q-S (TCR, V domains shown)
V domain 1: AQKITQTQPGMFVQEKEAVTLDCTYDTSDPSYGLFWYKQPSSGEMIFLIYQGSYDQQNATEGRYSLNFQKARKSANLVISASQLGDSAMYFCAMRERTGTASKLTFGTGTRLQVTL
V domain 2: DVKVTQSSRYLVKRTGEKVFLECVQDMDHENMFWYRQDPGLGLRLIYFSYDVKMKEKGDIPEGYSVSREKKERFSLILESASTNQTSMYLCASSSTVPPQHFGDGTRLSILE
B15: B8.2.4 TCR mutant β95Q-L (TCR, V domains shown)
V domain 1: AQKITQTQPGMFVQEKEAVTLDCTYDTSDPSYGLFWYKQPSSGEMIFLIYQGSYDQQNATEGRYSLNFQKARKSANLVISASQLGDSAMYFCAMRERTGTASKLTFGTGTRLQVTL
V domain 2: DVKVTQSSRYLVKRTGEKVFLECVQDMDHENMFWYRQDPGLGLRLIYFSYDVKMKEKGDIPEGYSVSREKKERFSLILESASTNQTSMYLCASSLTVPPQHFGDGTRLSILE
B16: B8.2.4 TCR mutant β95Q-M (TCR, V domains shown)
V domain 1: AQKITQTQPGMFVQEKEAVTLDCTYDTSDPSYGLFWYKQPSSGEMIFLIYQGSYDQQNATEGRYSLNFQKARKSANLVISASQLGDSAMYFCAMRERTGTASKLTFGTGTRLQVTL
V domain 2: DVKVTQSSRYLVKRTGEKVFLECVQDMDHENMFWYRQDPGLGLRLIYFSYDVKMKEKGDIPEGYSVSREKKERFSLILESASTNQTSMYLCASSMTVPPQHFGDGTRLSILE
B17: B8.2.4 TCR mutant β98P-W (TCR, V domains shown)
V domain 1: AQKITQTQPGMFVQEKEAVTLDCTYDTSDPSYGLFWYKQPSSGEMIFLIYQGSYDQQNATEGRYSLNFQKARKSANLVISASQLGDSAMYFCAMRERTGTASKLTFGTGTRLQVTL
V domain 2: DVKVTQSSRYLVKRTGEKVFLECVQDMDHENMFWYRQDPGLGLRLIYFSYDVKMKEKGDIPEGYSVSREKKERFSLILESASTNQTSMYLCASSQTVWPQHFGDGTRLSILE
B18: B8.2.4 TCR mutant β95Q-V (TCR, V domains shown)
V domain 1: AQKITQTQPGMFVQEKEAVTLDCTYDTSDPSYGLFWYKQPSSGEMIFLIYQGSYDQQNATEGRYSLNFQKARKSANLVISASQLGDSAMYFCAMRERTGTASKLTFGTGTRLQVTL
V domain 2: DVKVTQSSRYLVKRTGEKVFLECVQDMDHENMFWYRQDPGLGLRLIYFSYDVKMKEKGDIPEGYSVSREKKERFSLILESASTNQTSMYLCASSVTVPPQHFGDGTRLSILE
B19: B8.2.4 TCR mutant β98P-V (TCR, V domains shown)
V domain 1: AQKITQTQPGMFVQEKEAVTLDCTYDTSDPSYGLFWYKQPSSGEMIFLIYQGSYDQQNATEGRYSLNFQKARKSANLVISASQLGDSAMYFCAMRERTGTASKLTFGTGTRLQVTL
V domain 2: DVKVTQSSRYLVKRTGEKVFLECVQDMDHENMFWYRQDPGLGLRLIYFSYDVKMKEKGDIPEGYSVSREKKERFSLILESASTNQTSMYLCASSQTVVPQHFGDGTRLSILE
B20: B8.2.4 TCR mutant β95Q-P (TCR, V domains shown)
V domain 1: AQKITQTQPGMFVQEKEAVTLDCTYDTSDPSYGLFWYKQPSSGEMIFLIYQGSYDQQNATEGRYSLNFQKARKSANLVISASQLGDSAMYFCAMRERTGTASKLTFGTGTRLQVTL
V domain 2: DVKVTQSSRYLVKRTGEKVFLECVQDMDHENMFWYRQDPGLGLRLIYFSYDVKMKEKGDIPEGYSVSREKKERFSLILESASTNQTSMYLCASSPTVPPQHFGDGTRLSILE
B21: B8.2.4 TCR mutant β95Q-N (TCR, V domains shown)
V domain 1: AQKITQTQPGMFVQEKEAVTLDCTYDTSDPSYGLFWYKQPSSGEMIFLIYQGSYDQQNATEGRYSLNFQKARKSANLVISASQLGDSAMYFCAMRERTGTASKLTFGTGTRLQVTL
V domain 2: DVKVTQSSRYLVKRTGEKVFLECVQDMDHENMFWYRQDPGLGLRLIYFSYDVKMKEKGDIPEGYSVSREKKERFSLILESASTNQTSMYLCASSNTVPPQHFGDGTRLSILE
B22: B8.2.4 TCR mutant β95Q-F (TCR, V domains shown)
V domain 1: AQKITQTQPGMFVQEKEAVTLDCTYDTSDPSYGLFWYKQPSSGEMIFLIYQGSYDQQNATEGRYSLNFQKARKSANLVISASQLGDSAMYFCAMRERTGTASKLTFGTGTRLQVTL
V domain 2: DVKVTQSSRYLVKRTGEKVFLECVQDMDHENMFWYRQDPGLGLRLIYFSYDVKMKEKGDIPEGYSVSREKKERFSLILESASTNQTSMYLCASSFTVPPQHFGDGTRLSILE

target: KRAS G13D antigen (G13D-RT6, SEQ ID NO: 20) loaded on Lovo-DPA0301:DPB0501 cells (human); assay: cell-based or functional assay

Point of comparison: B6, “TCR Mut RLU/WT RLU” value 0.59 ratio. Against it:
- B1 — lower, 0.47 ratio
- B2 — higher, 0.6 ratio
- B3 — lower, 0.25 ratio
- B4 — lower, 0.43 ratio
- B5 — higher, 1.14 ratio
- B7 — higher, 0.88 ratio
- B8 — lower, 0.3 ratio
- B9 — higher, 0.74 ratio
- B10 — higher, 1.03 ratio
- B11 — higher, 0.68 ratio
- B12 — higher, 0.81 ratio
- B13 — higher, 0.86 ratio
- B14 — higher, 0.61 ratio
- B15 — higher, 0.64 ratio
- B16 — higher, 0.99 ratio
- B17 — higher, 0.81 ratio
- B18 — higher, 0.76 ratio
- B19 — higher, 0.63 ratio
- B20 — lower, 0.21 ratio
- B21 — higher, 0.6 ratio
- B22 — lower, 0.34 ratio
